Experimental data from patent publication US20170224833A1, “SELF-ASSEMBLING MOLECULES THAT ACCUMULATE IN ACIDIC TUMOR MICROENVIRONMENTS” (OHIO STATE INNOVATION FOUNDATION, priority 2014, published 2017).
Residues, ends and D or L forms follow the SMILES beside them. *: point of attachment. Palmitoyl = CCCCCCCCCCCCCCCC(=O)*

Assays:
[1] = Circular dichroism (CD) spectroscopy of pH-triggered self-assembly transition in 150 mM NaCl, 2.2 mM CaCl2; type: physicochemical; conditions: for CD Transition pH: random coil to β-sheet; for secondary structure by CD: irrespective of concentration and pH (pH 5-10)
Experimental: The target PA concentration (10 μM) was below the detectable limit of conventional techniques to determine the morphology such as cryoTEM and small-angle X-ray scattering. Consequently, circular dichroism (CD) spectroscopy was initially used to characterize the morphology of these PAs at various pH values. PA1 was the first molecule synthesized that underwent a self-assembly transition in the desired pH range of 6.6-7.4 at 10 μM PA concentration, in 150 mM NaCl and 2.2 mM CaCl2 (FIG. 2A) (Goldberger, J. E., et al. Angew. Chem. Int. Ed. 2011 50:6292-95). […] The transition pH from random coil to β-sheet occurred at a pH of 6.6. The transition pH was defined as the value at which the ellipticity at 205 nm rises to zero, followed by the appearance of a minimum at 218-220 nm.
Measurements were done on a Jasco-815 Circular Dichroism spectrometer using 1 cm path length quartz cuvettes. 10 μM solutions of peptide amphiphiles were prepared in 150 mM NaCl and 2.2 mM CaCl2 by dilution from a concentrated PA stock (0.5-1 mM, pH 9). Double de-ionized Milli-Q water was used for preparing all solutions. The solutions were then heated at 80° C. for 30 minutes in a water bath and gradually cooled to room temperature. An Accumet XL15 pH meter (Fisher Scientific) coupled with an Orion Ross Ultra semi-micro electrode (8103BNUWP, Thermo Scientific) was used to adjust the pH of the solution to the desired value followed by collection of the CD spectra Each trace shown was averaged over 3 accumulations and was baseline subtracted using aqueous solutions containing salts only. All spectra are cut-off below 205 nm due to absorption by NaCl and CaCl2.
Measurements were done on a Jasco-815 Circular Dichroism spectrometer using 0.5-1 cm path length quartz cuvettes. 500-10 μM of either pure PA or PA mixtures were prepared in 150 mM NaCl and 2.2 mM CaCl2 (and 1.8 mM 20 kDa PEG in select samples) by dilution from a concentrated PA stock (0.5-1 mM, pH 9). Double de-ionized Milli-Q water was used for preparing all solutions. The solutions were then heated at 80° C. for 30 minutes in a water bath and gradually cooled to room temperature. An Accumet XL15 pH meter (Fisher Scientific) coupled with an Orion Ross Ultra semi-micro electrode (8103BNUWP, Thermo Scientific) was used to adjust the pH of the solution to the desired value followed by collection of the CD spectra. Each trace shown was averaged over 3 accumulations and was baseline subtracted using aqueous solutions containing salts only. All spectra are cut-off below 200 nm due to absorption by NaCl and CaCl2. The same procedure was followed for the salt control samples with 3.0 and 4.0 mM CaCl2.
Self-assembly behavior is known to be extremely sensitive to minor changes in monomer structure and presence of impurities. […] CAC measurements via the pyrene 1:3 method (Das, D. et al. J. Colloid Interface Sci. 2008, 327:198) were used to ascertain the single molecule to spherical micelle transitions at varying pH values (FIGS. 24A-24C). CD Spectroscopy was used to determine the pH points at which different concentrations (10-500 μM) of the PA molecules transitioned from a random coil to a β-sheet secondary structure (FIGS. 25A-25C). It has been previously shown that the random coil and β-sheet structures correspond to spherical micellar/isolated molecule and nanofiber morphologies respectively (Ghosh, A. et al. J. Am. Chem. Soc. 2012, 134:3647). The CD transition point was defined to be the pH value at which the ellipticity at 200 nm rose from a negative value (random coil) to zero accompanied by the appearance of a minimum at 218-220 nm. The addition of PA66 shifted the CD transition pH to more basic values by ˜0.6 pH units. […] This ˜0.6 pH shift in CD transition pH to more basic values were also observed when 1.5% of PA67 was added to PA65. […]

[2] = Transmission electron microscopy (TEM) of self-assembled morphology; type: physicochemical; conditions: for average diameter of isolated nanofibers: 0.5 mM; for fiber diameter: pH 8.0 (100 μM, FIG. 40)
Experimental: TEM images were obtained using solutions of either 10 μM or 0.5 mM peptide amphiphile concentration, as well as 150 mM NaCl and 2.2 mM CaCl2 in Milli-Q water. The solutions were first heated at 80° C. for 30 minutes in a water bath and then gradually cooled to room temperature. This was followed by pH adjustment using either HCl or NaOH. 5 μL of this solution was pipetted onto a Carbon Formvar grid (Electron Microscopy Sciences) and allowed to sit for 2 minutes before being wicked dry using filter paper. For the 10 μM experiments that were performed to determine the time dependence of nanofiber formation, solutions were dropcast onto the grid within three minutes of pH adjustment. The samples were then negatively stained using 1 wt % uranyl acetate and imaged under a FEI Tecnai G2 Bio TWIN TEM system, operating at 100 kV. All TEM experiments were performed in triplicate, using at least three different freshly prepared solutions and grids. […]
TEM images were obtained at various concentrations and pH values, with 150 mM NaCl and 2.2 mM CaCl2 in deionized water. Solutions were heated at 80° C. for 30 minutes and gradually cooled to room temperature. Following temperature equilibration, pH adjustment was achieved using HCl or NaOH. 5 μL of this solution was pipetted onto a Carbon Formvar grid (Electron Microscopy Sciences) and allowed to sit for 2 minutes before being wicked dry using filter paper strips. The samples were negatively stained with 1 wt % uranyl acetate and imaged under a FEI Tecnai G2 Bio TWIN TEM system operating at 100 kV.
Transmission electron microscopy was employed to confirm the self-assembled morphology at different pH values and concentrations. The sample to be tested was basified to a pH of 10, stirred at 90° C. in an oil bath for 30 minutes and cooled to room temperature. The pH was then adjusted with HCl and NaOH to set the peptide solution (in 150 mM NaCl and 2.2 mM CaCl2) to a pH of either 5 or 9. Once the desired pH was reached, 5 μL of the sample was placed and spread onto a Carbon Formvar grid (Electron Microscopy Sciences) and allowed to sit for one minute before being wicked dry with filter paper. A 1 wt % uranyl acetate solution was added and spread over the grid to negatively stain the sample, and was wicked dry immediately after application. The grid was then examined by a FEI Tecnai G2 Biotwin TEM at 100 keV. The diameters of each self-assembled morphology was determined via averaging at least 30 different objects.

[3] = 10 μM PA, 150 mM NaCl, 2.2 mM CaCl2

CCCCCCCCCCCCCCCC(=O)N[C@H](C(=O)N[C@@H](C)C(=O)N[C@@H](C)C(=O)N[C@@H](C)C(=O)N[C@@H](CCC(=O)O)C(=O)N[C@@H](CCC(=O)O)C(=O)N[C@@H](CCC(=O)O)C(=O)N[C@@H](CCC(=O)O)C(N)=O)[C@@H](C)CC [PA1] (Palmitoyl-IAAAEEEE-NH2)
pH above which CD shows superimposable random coil morphology [1, 3]: 6.82 | CD Transition pH [1, 3]: 6.6 | time required to achieve the expected morphology after pH change ([1]; 10 μM, 150 mM NaCl, 2.2 mM CaCl2): three minutes or less | transition between random coil and β-sheet structure (reversibility) ([1]; 10 μM, pH switched between 7.75 and 6.1, three cycles): rapid and reversible | pH transition point at 10 μm PA ([1]; basic to acidic transition from small molecule to cylindrical nanofiber, simulated serum environment): 6.6 | average diameter of isolated fibers ([2]; 10 μM, pH 6): 9.1±1.5 nm | average length of isolated fibers ([2]; 10 μM, pH 6, grids within three minutes of pH adjustment): 590±200 nm | fibers observed by TEM ([2]; 10 μM, pH 8): no fibers were present | average diameter of isolated nanofibers ([2]; pH 6.0): 9.4±1.1 nm | average diameter of isolated nanofibers ([2]; pH 10.0): 9.5±1.2 nm

palmitoyl-YYAAEEEEEK(DO3A:Gd)-NH2 (Palmitoyl-YYAAEEEEEK(DO3A)-NH2; also: DO3A chelates Gd) [PA74]
pH below which nanofibers form (CD morphology transition) ([1]; 50 μM): 5.75 | nanofiber diameter ([2]; FIG. 50: pH 5, PA74 500 μM, PA75 100 μM): 9.7+/−1.2 nm | morphology by TEM ([2]; pH 5, PA74 500 μM, PA75 100 μM): nanofiber morphology | morphology by TEM ([2]; pH 9, PA74 500 μM, PA75 100 μM): spherical micelle morphology

CCCCCCCCCCCCCCCC(=O)N[C@@H](C)C(=O)N[C@H](C(=O)N[C@@H](C)C(=O)N[C@@H](C)C(=O)N[C@@H](CCC(=O)O)C(=O)N[C@@H](CCC(=O)O)C(=O)N[C@@H](CCC(=O)O)C(=O)N[C@@H](CCC(=O)O)C(N)=O)[C@@H](C)CC [PA68] (Palmitoyl-AIAAEEEE-NH2)
morphology by CD ([1]; 8.4 μM and above): formed nanofibers across all pH values | nanofiber diameter ([2]; 100 μM, pH 5.0 and 8.3): 9.5±0.8 nm

Palmitoyl-AIAAEEEEK(DO3A:Gd)-NH2 (Palmitoyl-AIAAEEEEK(DO3A)-NH2; also: DO3A chelates Gd) [PA71]
secondary structure by CD [1]: exclusively 3-sheet formation irrespective of concentration and pH | nanofiber length ([2]; pH 6.6, 150 μM): > 1 μm | nanofiber width ([2]; pH 6.6, 150 μM): ~11.3±1.1 nm | fiber diameter [2]: ~9.6±0.5 nm

Palmitoyl-IAAAEEEEK(DO3A:Gd)-NH2 (Palmitoyl-IAAAEEEEK(DO3A)-NH2; also: DO3A chelates Gd) [PA5]
CD Transition pH [1, 3]: 5.7 | nanofiber to micelle transition pH ([1]; 20 μM PA): 5.7 | nanofiber to micelle transition pH ([1]; 0.5 mM PA): 6.0 | pH transition point at 10 μm PA ([1]; basic to acidic transition from spherical micelle to cylindrical fiber, simulated serum environment (150 mM NaC, 2.2 mM CaCl2)): 5.7 | nanofiber diameter ([2]; 0.5 mM PA, pH 4): 11.9±1.6 nm | spherical micelle diameter ([2]; 0.5 mM PA, pH 10): 10.0±1.2 nm

Palmitoyl-AAAIEEEE-NH2 (SMILES CCCCCCCCCCCCCCCC(=O)N[C@@H](C)C(=O)N[C@@H](C)C(=O)N[C@@H](C)C(=O)N[C@H](C(=O)N[C@@H](CCC(=O)O)C(=O)N[C@@H](CCC(=O)O)C(=O)N[C@@H](CCC(=O)O)C(=O)N[C@@H](CCC(=O)O)C(N)=O)[C@@H](C)CC) [PA70]
secondary structure by CD [1]: β-sheet secondary structure regardless of concentration and pH | fiber diameter [2]: ~9.0±0.8 nm
